Measured values from paper PMC5342555, “ATAD2 is an epigenetic reader of newly synthesized histone marks during DNA replication” (Oncotarget, 2016).

Molecular target: H4K12ac-TAMRA peptide
Assay: fluorescence polarisation
Settings: 8 nM H4K12ac-TAMRA peptide; value read at the highest BD mut concentration shown, est. about 500-600 nM; parent: est. 80; read off a plot

Sequence of ATAD2^342-1390 WT (Q6PL18 342-1390 V1013A/Y1021A/I1074A, change not shown): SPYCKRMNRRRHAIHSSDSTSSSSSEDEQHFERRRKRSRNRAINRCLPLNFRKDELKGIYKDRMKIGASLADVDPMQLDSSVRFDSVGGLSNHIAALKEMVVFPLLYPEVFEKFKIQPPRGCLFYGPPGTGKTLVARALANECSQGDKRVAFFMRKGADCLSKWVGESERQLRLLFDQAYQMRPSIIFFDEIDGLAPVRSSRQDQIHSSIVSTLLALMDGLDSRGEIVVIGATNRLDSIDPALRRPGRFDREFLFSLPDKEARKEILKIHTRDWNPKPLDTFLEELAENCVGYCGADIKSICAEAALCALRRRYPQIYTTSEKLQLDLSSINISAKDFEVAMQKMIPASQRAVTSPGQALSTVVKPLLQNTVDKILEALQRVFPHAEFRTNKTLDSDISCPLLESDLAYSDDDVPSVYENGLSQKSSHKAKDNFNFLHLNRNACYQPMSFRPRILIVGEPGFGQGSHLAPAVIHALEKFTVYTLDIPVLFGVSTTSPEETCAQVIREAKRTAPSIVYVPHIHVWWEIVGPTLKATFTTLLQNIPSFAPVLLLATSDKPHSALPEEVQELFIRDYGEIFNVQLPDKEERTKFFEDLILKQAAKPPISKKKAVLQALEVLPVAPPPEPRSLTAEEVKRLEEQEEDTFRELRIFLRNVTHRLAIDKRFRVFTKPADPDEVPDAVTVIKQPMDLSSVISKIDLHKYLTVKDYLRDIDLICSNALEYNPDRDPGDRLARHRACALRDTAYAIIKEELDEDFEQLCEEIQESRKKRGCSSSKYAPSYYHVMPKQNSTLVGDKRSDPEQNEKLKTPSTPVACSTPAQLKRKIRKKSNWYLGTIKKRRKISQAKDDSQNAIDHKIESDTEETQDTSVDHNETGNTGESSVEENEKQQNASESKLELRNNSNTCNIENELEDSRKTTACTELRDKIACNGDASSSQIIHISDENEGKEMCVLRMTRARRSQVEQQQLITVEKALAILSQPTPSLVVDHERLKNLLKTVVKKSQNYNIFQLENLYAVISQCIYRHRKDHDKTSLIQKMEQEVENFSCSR

- response: 14 mP
Substance: ATAD2^342-1390 WT (from UniProt Q6PL18) BD mut
